Here are results for four molecules from patent US20150246971A1 (RESEARCH DEVELOPMENT FOUNDATION, published 2015).

The target in test [1] is T1, soluble human JAM-C-FLAG protein (human, UniProt Q9BX67 32-237).
T1 construct: Amine-coupled to a Biacore CM5 chip; also called immobilized JAM-C; human soluble JAM-C FLAG protein
T1 sequence: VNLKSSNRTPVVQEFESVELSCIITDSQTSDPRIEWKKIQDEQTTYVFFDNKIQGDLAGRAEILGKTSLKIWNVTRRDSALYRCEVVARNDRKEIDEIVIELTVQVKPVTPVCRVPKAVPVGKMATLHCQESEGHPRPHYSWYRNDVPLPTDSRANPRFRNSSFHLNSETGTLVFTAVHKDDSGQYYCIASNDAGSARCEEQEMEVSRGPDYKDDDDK
As to the kind of experiment: SPR (Biacore 2000), JAM-C FLAG on a CM5 chip. On the procedure: (§1) To confirm the specificity of the JAM-C/JAM-B interaction at the molecular level, soluble human JAM-C-FLAG protein was covalently immobilized to a Biacore CM5 sensor chip Immobilization was assessed by testing the binding of anti-JAM-C monoclonal and polyclonal antibodies. […] Homotypic JAM-C/JAM-C interaction was never observed under these conditions, even when injecting higher concentrations of JAM-C Fc. […] To validate these findings for the model of human cells injected into mice, the inventors subsequently confirmed that human JAM-C binds to murine JAM-B to the same extent as to human JAM-B (FIG. 6B).
(§2) Interaction studies were performed on a Biacore 2000 (GE Healthcare). Recombinant proteins were immobilized at a concentration of 5 μg/mL on a CM5 sensor chip using the amine coupling kit (NHS-EDC) provided by the Biacore supplier. Background signal from a reference channel without soluble JAM-C was automatically subtracted. Proteins (30 μL) were injected (Kinject) in running buffer (400 μM Tris-HCl pH 7.4, containing 145 mM NaCl) at a flow rate of 20 μL/min.

Test [2] concerns the target T2, human JAM-C (full-length, on cells) (human, UniProt Q9BX67 32-310).
T2 construct: whole, on cells; also called HuJAM-C; junctional adhesion molecule C
T2 sequence (looked up): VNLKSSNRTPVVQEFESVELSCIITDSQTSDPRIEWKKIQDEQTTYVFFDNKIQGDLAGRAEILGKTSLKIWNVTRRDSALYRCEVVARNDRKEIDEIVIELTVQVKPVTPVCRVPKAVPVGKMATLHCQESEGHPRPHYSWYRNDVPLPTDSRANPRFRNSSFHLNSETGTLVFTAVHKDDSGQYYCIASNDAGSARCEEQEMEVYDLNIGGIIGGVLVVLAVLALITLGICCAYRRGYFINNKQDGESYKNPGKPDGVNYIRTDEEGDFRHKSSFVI
As to the kind of experiment: adhesion of CFSE-labelled JAM-C-transfected Raji cells to coated Fc protein. As for the experimental part:
(§3) Although homotypic JAM-C/JAM-C and heterotypic JAM-C/JAM-B interactions have been reported, the endothelial ligand for JAM-C on B cells had not been described. To investigate this interaction, adhesion assays were performed. Culture plates were coated with recombinant human and murine JAM-B Fc, human JAM-C Fc, human VCAM-1 Fc as a positive control, and JAM-A Fc as a negative control. The JAM-Cneg B cell line Raji was transfected with the full-length human JAM-C cDNA and mock-transfected cells were used as a control (FIG. 5A). Whereas mock-transfected Raji cells adhered only to VCAM-1, JAM-C transfected Raji cells adhered to JAM-B and VCAM-1, but adhered neither to JAM-C nor to JAM-A (FIG. 5B-C). […]
(§4) For cell adhesion assays, NUNC 269787 adhesion plates were successively coated with anti-huFc antibody (Jackson Immuno Research) at 2.5 μg/mL, Fc-labeled proteins at 2.5 μg/mL, and blocked with 1% BSA (purified fraction V, Sigma). […] One hundred microliters of lysed cells were transferred into a 96-well plate (micro-clear plates black, Greiner), and fluorescence (πex 485 nm; πem 538 nm) was measured with a Flex Station Microplate reader (Molecular Devices). Data were expressed either in arbitrary units or as the ratio of the fluorescence measured on JAM-B Fc coated wells to the fluorescence measured on wells coated with Fc control protein.

Test [3] addresses T1, soluble human JAM-C-FLAG protein. As to the kind of experiment: SPR (Biacore 2000), JAM-C FLAG on a CM5 chip, response at the end of injection. On the procedure:
as §1, §2

Test [4] deals with T2, human JAM-C (full-length, on cells). As to the kind of experiment: adhesion of CFSE-labelled JAM-C-transfected Raji cells to coated Fc protein (human and murine JAM-B Fc coated). As for the experimental part: as §3, §4

B1: recombinant human JAM-B Fc (Fc fusion)
chain: FSAPKDQQVVTAVEYQEAILACKTPKKTVSSRLEWKKLGRSVSFVYYQQTLQGDFKNRAEMIDFNIRIKNVTRSDAGKYRCEVSAPSEQGQNLEEDTVTLEVLVAPAVPSCEVPSSALSGTVVELRCQDKEGNPAPEYTWFKDGIRLLENPRLGSQSTNSSYTMNTKTGTLQFNTVSKLDTGEYSCEARNSVGYRRCPGKRMQVDDLNIS
notes: Bought (R&D); also called soluble JAM-B Fc; soluble human JAM-B Fc; not shown: Fc tag (detected with anti-human IgG1 Fc)
Take B1: the binding result in test [1] and in test [2] was “binds” throughout.

B2: human JAM-B FLAG (ligand)
chain: FSAPKDQQVVTAVEYQEAILACKTPKKTVSSRLEWKKLGRSVSFVYYQQTLQGDFKNRAEMIDFNIRIKNVTRSDAGKYRCEVSAPSEQGQNLEEDTVTLEVLVAPAVPSCEVPSSALSGTVVELRCQDKEGNPAPEYTWFKDGIRLLENPRLGSQSTNSSYTMNTKTGTLQFNTVSKLDTGEYSCEARNSVGYRRCPGKRMQVDDLNIS
notes: also called human JAM-B FLAG protein; not shown: FLAG tag
For B2, the binding result in test [1] is “binds”.

B3: murine JAM-B FLAG (ligand, UniProt Q9JI59 29-236, looked up)
chain: FSASKDHRQEVTVIEFQEAILACKTPKKTTSSRLEWKKVGQGVSLVYYQQALQGDFKDRAEMIDFNIRIKNVTRSDAGEYRCEVSAPTEQGQNLQEDKVMLEVLVAPAVPACEVPTSVMTGSVVELRCQDKEGNPAPEYIWFKDGTSLLGNPKGGTHNNSSYTMNTKSGILQFNMISKMDSGEYYCEARNSVGHRRCPGKRMQVDVLN
notes: also called murine JAM-B FLAG protein; not shown: FLAG tag
As to B3, the binding result in test [3] was “binds”.

B4: recombinant murine JAM-B Fc (Fc fusion, UniProt Q9JI59 29-236, looked up)
chain: FSASKDHRQEVTVIEFQEAILACKTPKKTTSSRLEWKKVGQGVSLVYYQQALQGDFKDRAEMIDFNIRIKNVTRSDAGEYRCEVSAPTEQGQNLQEDKVMLEVLVAPAVPACEVPTSVMTGSVVELRCQDKEGNPAPEYIWFKDGTSLLGNPKGGTHNNSSYTMNTKSGILQFNMISKMDSGEYYCEARNSVGHRRCPGKRMQVDVLN
notes: Coated on adhesion plates; also called mouse JAM-B; not shown: Fc tag (captured by anti-huFc antibody)
Take B4: in test [4], the binding result was “binds”.
